Assay [1] addresses T1, HLA-DR5w12 (DRB1*1201) (human).
T1 chain 1: not shown
T1 chain 2: not shown

Assay [2] addresses T2, HLA-DRw53 (DRB4*0101) (human).
T2 chain 1: not shown
T2 chain 2: not shown

Assay [3] deals with T3, HLA-DR7 (DRB1*0701) (human).
T3 chain 1: not shown
T3 chain 2: not shown

Assay [4] addresses T4, HLA-DR8w2 (DRB1*0802) (human).
T4 chain 1: not shown
T4 chain 2: not shown

For assay [5], the target named is HLA-A*1101 (Human).
For assay [6], the target named is HLA-DR5w11 (DRB1*1101) (human).
Assay [7] addresses HLA-DR4w4 (DRB1*0401) (human).
Assay [8] concerns the target HLA-A*1101 (human). Kind of assay: competition with 125I-labelled standard peptide for purified HLA, gel filtration.
Assay [9] addresses T5, HLA-DR9 (DRB1*0901) (human).
T5 chain 1: not shown
T5 chain 2: not shown

Assay [10] concerns the target T6, HLA-DR6w19 (DRB1*1302) (human).
T6 chain 1: not shown
T6 chain 2: not shown

Assay [11] deals with HLA-DR3 (DRB1*0301) (human).
In assay [12] the target is HLA-DR1 (DRB1*0101) (human).
The target in assay [13] is HLA-DR2w2β2 (DRB5*0101) (human).
The target in assay [14] is HLA-DR4w15 (DRB1*0405) (human).

B1: … (P. falciparum EXP, position 51) (peptide)
peptide: HDLISDMIKK
modifications: not checked
Regarding B1, the binding affinity ratio (IC50 of standard peptide / IC50 of test peptide) with HLA-A*0301 (human) stood at 0.0009.

B2: … (Pf SSP2 157) (peptide)
peptide: VVILTDGIPDSIQDS
modifications: not checked
For B2, the binding affinity ratio (IC50 of standard peptide / IC50 of test peptide) was 0.0001 in assay [1], 0.0114 in assay [2], -0.0003 in assay [3] and -0.0003 in assay [4].

B3: NDIEKKIK (CSP 401) (peptide)
peptide: NDIEKKICK
modifications: not checked
As for B3, the binding affinity ratio (IC50 of standard peptide / IC50 of test peptide) with HLA-A*1101 (Human) [5] was found to be 0.0002.

B4: … (peptide)
peptide: AGGLALLACAGLAYK
modifications: not checked
Turning to B4, the binding affinity ratio (IC50 of standard peptide / IC50 of test peptide) is -0.0002 in assay [6] and -0.0007 in [7].

B5: … (P. falciparum EXP, position 32) (peptide)
peptide: GVSSKKKNK
modifications: not checked
As to B5, in the assay with HLA-A*0301 (human), the binding affinity ratio (IC50 of standard peptide / IC50 of test peptide) was 0.0001.

B6: … (Pf SSP2 513) (peptide)
peptide: AGGIAGGLALLACAG
modifications: not checked
Turning to B6, the binding affinity ratio (IC50 of standard peptide / IC50 of test peptide) in assay [1] is 0.0007; in assay [2], -0.0005; in assay [3], -0.0003; in assay [4], 0.0004.

B7: … (P. falciparum EXP, position 51) (peptide)
peptide: HDLISDMIK
modifications: not checked
Consider B7, for which the binding affinity ratio (IC50 of standard peptide / IC50 of test peptide) with HLA-A*0301 (human) amounted to 0.0001.

B8: … (P. falciparum EXP, position 15) (peptide)
peptide: IFNKESLAEK
modifications: not checked
B8: the binding affinity ratio (IC50 of standard peptide / IC50 of test peptide) in the assay with HLA-A*0301 (human) turned out to be 0.0005.

B9: … (P. falciparum EXP, position 32) (peptide)
peptide: GVSSKKKNKK
modifications: not checked
Consider B9, for which the binding affinity ratio (IC50 of standard peptide / IC50 of test peptide) in the assay with HLA-A*0301 (human) worked out at 0.0011.

B10: … (Pf CSP 377, A11 motif peptide) (peptide)
peptide: CGNGIQVRIK
modifications: not checked
As to B10, in the assay with HLA-A*1101 (Human) [5], the binding affinity ratio (IC50 of standard peptide / IC50 of test peptide) stood at 0.0002.

B11: … (peptide)
peptide: SVTCGKGTR
modifications: not checked
On to B11, for which, in the assay with HLA-A*1101 (human) [8], the binding affinity ratio (IC50 of standard peptide / IC50 of test peptide) turned out to be 0.0009.

B12: … (Pf EXP 1) (peptide)
peptide: MKILSVFFLALFFII
modifications: not checked
Turning to B12, the binding affinity ratio (IC50 of standard peptide / IC50 of test peptide) in assay [1] amounted to 0.0023; in assay [3], 0.036; in assay [4], 0.0023; in [9], 0.006; in [10], 0.0019.

B13: … (Pf EXP 107) (peptide)
peptide: RHPFKIGSSDPADNA
modifications: not checked
B13: the binding affinity ratio (IC50 of standard peptide / IC50 of test peptide) is 0.0001 in [1]; -0.0003 in assay [3]; 0.038 in assay [4]; 0.095 in [9]; 0.0003 in assay [10].

B14: … (peptide)
peptide: LGNVKYLVIVFLIFF
modifications: not checked
For the molecule B14, the binding affinity ratio (IC50 of standard peptide / IC50 of test peptide) in assay [11] is -0.0008; in [12] it was 0.0006.

B15: … (peptide)
peptide: VVILTDGIPDSIQDS
modifications: not checked
Consider B15, for which the binding affinity ratio (IC50 of standard peptide / IC50 of test peptide) in [13] is -0.0006; in assay [6], -0.0004; in assay [12] it was 0.0001.

B16: … (Pf SSP2 68) (peptide)
peptide: AVPLAMKLIQQLNLN
modifications: not checked
On to B16, for which the binding affinity ratio (IC50 of standard peptide / IC50 of test peptide) was 0.13 in assay [1], 0.035 in [2], 0.077 in assay [3] and 0.04 in [4].

B17: … (peptide)
peptide: ILSVFFLALFFIIFN
modifications: not checked
With B17, the binding affinity ratio (IC50 of standard peptide / IC50 of test peptide) in [13] was 0.0091; in assay [14] it was -0.0009; in assay [11], -0.0008.

B18: … (peptide)
peptide: KYLVIVFLIFFDLFL
modifications: not checked
Consider B18, for which the binding affinity ratio (IC50 of standard peptide / IC50 of test peptide) in assay [13] is -0.002; in assay [14] it was -0.003; in assay [6], -0.0009.

B19: … (Pf SSP2 235) (peptide)
peptide: CVEVEKTASCGVWDE
modifications: not checked
For B19, the binding affinity ratio (IC50 of standard peptide / IC50 of test peptide) was 0.0001 in assay [1], 0.0095 in [3] and 0.0005 in assay [4].

B20: … (Pf SSP2 153) (peptide)
peptide: ANQLVVILTDGIPDS
modifications: not checked
Take B20: the binding affinity ratio (IC50 of standard peptide / IC50 of test peptide) in [1] was 0.0003; in assay [3] it was 0.0054; in [4], -0.0002; in [9] it was 0.042; in [10] it was 0.007.

B21: … (peptide)
peptide: VKYLVIVFLIFFDLF
modifications: not checked
Consider B21, for which the binding affinity ratio (IC50 of standard peptide / IC50 of test peptide) in assay [7] stood at 0.003; in assay [12], 0.0001.

B22: … (P. falciparum EXP, position 66) (peptide)
peptide: EVNKRKSKY
modifications: not checked
For the molecule B22, the binding affinity ratio (IC50 of standard peptide / IC50 of test peptide) with HLA-A*1101 (Human) [5] was 0.0002.

B23: … (Pf SSP2 517) (peptide)
peptide: AGGLALLACAGLAYK
modifications: not checked
B23: the binding affinity ratio (IC50 of standard peptide / IC50 of test peptide) was 0.0051 in assay [1], -0.0005 in [2], 0.0009 in assay [3] and 0.0003 in assay [4].

B24: … (Pf CSP 96, A11 motif peptide) (peptide)
peptide: DGNNEDNEK
modifications: not checked
Consider B24, for which the binding affinity ratio (IC50 of standard peptide / IC50 of test peptide) with HLA-A*1101 (Human) [5] amounted to 0.0002.

B25: … (peptide)
peptide: CGVWDEWSPCSVTCG
modifications: not checked
For the molecule B25, the binding affinity ratio (IC50 of standard peptide / IC50 of test peptide) in [13] is -0.0006; in assay [6], -0.0002; in assay [7], -0.0007; in [12], 0.0001.

B26: … (peptide)
peptide: LIDVHDLISDMIKKE
modifications: not checked
As for B26, the figures for the binding affinity ratio (IC50 of standard peptide / IC50 of test peptide) in assay [14] and in [11] were 0.0076 and 0.01, respectively.

B27: … (peptide)
peptide: TVLLGGVGLVLYNTE
modifications: not checked
Turning to B27, the binding affinity ratio (IC50 of standard peptide / IC50 of test peptide) is -0.0005 in assay [13], -0.0009 in assay [14], -0.0002 in [6] and 0.49 in assay [12].

B28: … (P. falciparum EXP, position 27) (peptide)
peptide: KGTGSGVSSK
modifications: not checked
Turning to B28, the binding affinity ratio (IC50 of standard peptide / IC50 of test peptide) with HLA-A*0301 (human) came to 0.0005.

B29: … (peptide)
peptide: CVEVEKTASCGVWDE
modifications: not checked
Consider B29, for which the binding affinity ratio (IC50 of standard peptide / IC50 of test peptide) was -0.0005 in assay [13]; -0.0009 in [14]; -0.0002 in [6]; 0.0021 in assay [7]; 0.0004 in [12].

B30: … (peptide)
peptide: WSPCSVTCGK
modifications: not checked
As to B30, the binding affinity ratio (IC50 of standard peptide / IC50 of test peptide) with HLA-A*1101 (human) [8] amounted to 0.0002.

B31: … (CSP 31) (peptide)
peptide: NTRVLNELNY
modifications: not checked
Regarding B31, the binding affinity ratio (IC50 of standard peptide / IC50 of test peptide) in the assay with HLA-A*1101 (Human) [5] came to 0.0002.

B32: … (peptide)
peptide: SIQDSLKESR
modifications: not checked
On to B32, for which the binding affinity ratio (IC50 of standard peptide / IC50 of test peptide) with HLA-A*1101 (human) [8] stood at 0.0009.

B33: … (P. falciparum CSP, position 95) (peptide)
peptide: RDGNNEDNEK
modifications: not checked
On to B33, for which the binding affinity ratio (IC50 of standard peptide / IC50 of test peptide) with HLA-A*1101 (Human) [5] amounted to 0.0002.

Values taken from patent publication US9266930.
